Experiments:
[1] = molecular target: rabbit skeletal-muscle F-actin (rabbit) (UniProt P68135); assay: co-sedimentation; 0.2-3.5 µM tropomyosin with 3 µM F-actin in T buffer (150 mM NaCl, 10 mM Tris-HCl pH 7.5, 2 mM MgCl2), 50 µL, 1 h at room temperature; 670,000 x g, 20 °C, 30 min; SDS-PAGE densitometry; Hill equation fit; apparent Kd
[2] = molecular target: β-actin filament (cytoskeletal actin, polymerized from G-actin) (UniProt P60709); assay: TIRF microscopy of tropomyosin-decorated single actin filaments; control experiments: the same Tpm isoform labeled with AF488 and with AF568 (0.015 µM of each) mixed with 1 µM G-actin in D buffer, polymerized with 50 mM NaCl for 5-10 min, 10% PEG 300; decorated filaments captured on PLL-PEG/BSA coverslips in microfluidic channels, washed with TIR50 buffer
[3] = molecular target: α-actin filament (muscle actin, polymerized from G-actin) (UniProt P68135); assay: as above

Chain of Tpm1.6 (Tm2), unlabeled recombinant human cytoskeletal tropomyosin (natural protein; modification not given) (chain, as listed by the source): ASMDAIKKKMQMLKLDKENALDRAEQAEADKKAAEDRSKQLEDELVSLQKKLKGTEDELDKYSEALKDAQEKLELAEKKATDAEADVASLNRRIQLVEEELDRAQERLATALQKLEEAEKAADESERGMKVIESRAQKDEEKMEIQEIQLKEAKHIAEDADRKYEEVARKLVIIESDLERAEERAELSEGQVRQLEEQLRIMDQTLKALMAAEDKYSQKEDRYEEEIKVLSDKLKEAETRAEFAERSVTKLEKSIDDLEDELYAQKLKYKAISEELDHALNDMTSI

Row | Substance | Kd [1] [nM] | ratio of Tpm in Ch1 (red, AF568)/Ch2 (green, AF488) on the filament, median [2] | ratio of Tpm in Ch1 (red, AF568)/Ch2 (green, AF488) on the filament, median [3]
1 | Tpm1.1 AF488 (Tpm1.1 labeled at Cys-190 with Alexa Fluor 488 C5 maleimide) (natural protein) | 170 | – | –
2 | Tpm1.6 (Tm2), unlabeled recombinant human cytoskeletal tropomyosin (natural protein; modification not given) | 440 | – | –
3 | Tpm1.1 (αTm), unlabeled recombinant rat skeletal/cardiac muscle tropomyosin (natural protein) | 640 | – | –
4 | Tpm1.1 AF568 (Tpm1.1 labeled at Cys-190 with Alexa Fluor 568 C5 maleimide) (natural protein) | 240 | 0.9 | 0.9

From article PMC11506546
